The text below walks through data of publication PMC10897178, “FANCJ DNA helicase is recruited to the replisome by AND-1 to ensure genome stability” (EMBO Reports, 2024).

The target in the assay is T1, Flag-tagged FANCJ D736H (human, UniProt Q9BX63 1-1249, D736H).
T1 construct: FANCJ (BRIP1), human, full-length; missense variant found in invasive breast carcinoma; source: HEK 293T, transiently transfected, purified (anti-Flag M2 agarose)
T1 sequence (looked up): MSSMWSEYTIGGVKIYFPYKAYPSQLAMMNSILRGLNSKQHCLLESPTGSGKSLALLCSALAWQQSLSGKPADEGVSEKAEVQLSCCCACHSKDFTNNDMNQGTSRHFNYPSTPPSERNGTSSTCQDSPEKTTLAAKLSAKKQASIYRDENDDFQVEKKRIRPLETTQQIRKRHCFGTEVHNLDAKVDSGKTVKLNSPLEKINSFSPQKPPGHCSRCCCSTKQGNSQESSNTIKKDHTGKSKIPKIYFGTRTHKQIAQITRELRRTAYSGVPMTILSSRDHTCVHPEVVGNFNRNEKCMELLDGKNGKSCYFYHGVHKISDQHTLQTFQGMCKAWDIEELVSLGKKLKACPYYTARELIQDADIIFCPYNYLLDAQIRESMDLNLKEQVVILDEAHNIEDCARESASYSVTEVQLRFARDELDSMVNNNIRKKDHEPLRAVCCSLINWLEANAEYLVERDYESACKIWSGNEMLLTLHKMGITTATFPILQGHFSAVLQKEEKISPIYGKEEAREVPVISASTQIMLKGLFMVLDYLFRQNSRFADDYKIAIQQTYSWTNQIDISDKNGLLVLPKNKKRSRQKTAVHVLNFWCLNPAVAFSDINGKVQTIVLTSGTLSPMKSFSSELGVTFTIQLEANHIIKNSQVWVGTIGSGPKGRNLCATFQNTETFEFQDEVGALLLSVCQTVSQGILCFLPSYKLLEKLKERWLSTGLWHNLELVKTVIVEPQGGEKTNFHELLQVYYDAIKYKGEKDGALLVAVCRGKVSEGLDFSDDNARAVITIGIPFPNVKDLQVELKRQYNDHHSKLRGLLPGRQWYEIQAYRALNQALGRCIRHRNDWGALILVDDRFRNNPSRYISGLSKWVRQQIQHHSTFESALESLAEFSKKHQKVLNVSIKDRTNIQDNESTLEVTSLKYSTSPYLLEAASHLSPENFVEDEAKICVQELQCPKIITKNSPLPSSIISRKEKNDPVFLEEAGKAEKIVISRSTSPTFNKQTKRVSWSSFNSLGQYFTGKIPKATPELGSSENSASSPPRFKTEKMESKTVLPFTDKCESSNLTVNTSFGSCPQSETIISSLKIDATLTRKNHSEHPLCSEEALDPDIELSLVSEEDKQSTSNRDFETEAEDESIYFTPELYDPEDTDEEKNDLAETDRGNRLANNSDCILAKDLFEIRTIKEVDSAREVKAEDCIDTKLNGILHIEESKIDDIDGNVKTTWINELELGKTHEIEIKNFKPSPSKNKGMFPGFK
The experiment in a line: pull-down; GST-SepB α-helix bundle (0.5 µg) on Glutathione Sepharose 4B beads, purified Flag-FANCJ (0.5 µg) added; 25 mM Tris-HCl pH 7.5, 150 mM NaCl, 0.1% Triton X-100, 4 °C; washes with 300 mM NaCl, 1% Triton X-100; Western blot. The conditions noted are these: both partners purified.

B1: GST-SepB α-helix bundle WT (domain or fragment, human, UniProt O75717 718-824, looked up)
chain: IATEKGQMEEQFWRSVIFHNHLDYLAKNGYEYEESTKNQATKEQQELLMKMLALSCKLEREFRCVELADLMTQNAVNLAIKYASRSRKLILAQKLSELAVEKAAELT
notes: AND-1 (WDHD1), human, α-helix bundle of the SepB domain, amino-acid residues 718-824; Cloned into pGEX-2T; also called GST-SepB α-helix bundle chimeric protein; source: E. coli Rosetta pLysS (DE3), purified (Glutathione Sepharose 4B)
As for B1, the binding result was “binds”.
